The source of these data is patent US5968509.

The experiment addresses human CD3 antigen (human) (UniProt P07766). Kind of experiment: competitive flow cytometry on HPBALL cells; competitor: biotinylated monovalent humanised CD3 Mab.
Sequence of UniProt P07766 (P07766 23-207): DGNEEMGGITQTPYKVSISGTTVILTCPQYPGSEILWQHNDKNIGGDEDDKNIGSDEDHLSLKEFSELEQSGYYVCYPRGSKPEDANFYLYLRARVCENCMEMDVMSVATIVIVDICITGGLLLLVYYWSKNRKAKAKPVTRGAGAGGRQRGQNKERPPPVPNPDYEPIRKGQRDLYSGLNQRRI

B1: humanised bivalent CD3 Mab (antibody, V domains shown)
VH: EVQLLESGGGLVQPGGSLRLSCAASGFTFSSFPMAWVRQAPGKGLEWVSTISTSGGRTYYRDSVKGRFTISRDNSKNTLYLQMNSLRAEDTAVYYCAKFRQYSGGFDYWGQGTLVTVSS
VL: DFMLTQPHSVSESPGKTVIISCTLSSGNIENNYVHWYQQRPGRAPTTVIFDDDKRPDGVPDRFSGSIDRSSNSASLTISGLQTEDEADYYCHSYVSSFNVFGGGTKLTVL
Turning to B1, the fold concentration for 50% competition, against rat YTH12.5 Mab came to 1.3 fold.
